In publication PMC5292753, “Structural analysis and evolution of specificity of the SUMO UFD E1-E2 interactions” (Scientific Reports, 2017):
Like-named read-outs stand apart in the source and are kept apart here.

Legend:
[1] = molecular target: SUMO E2 (Ubc9) (Homo sapiens) (UniProt P63279); experiment: NMR; settings: cited from earlier work
[2] = molecular target: SUMO E2 (Ubc9) (Homo sapiens) (UniProt P63279); settings: cited from earlier work
[3] = molecular target: T1, human SUMO E2 conjugating enzyme Ubc9, full length (human, UniProt P63279 1-158, lysines methylated (borane-dimethylamine complex and formaldehyde), only in the complex that was crystallised); experiment: native gel or EMSA; native gel electrophoresis of human E1 UFD domain with Ubc9 (Supplementary Fig. S1); settings: both partners purified
T1 construct: SUMO-conjugating enzyme Ubc9, human, full length; Cloned in pET28a; the His tag was removed with thrombin, so a few residues of the vector may remain at the N-terminus; The complex with the UFD was lysine-methylated after gel filtration and only then crystallised; also called hSUMO Ubc9; source: E. coli BL21(DE3) pLysS, purified (Ni-NTA, thrombin, Superdex75 gel filtration); not shown: His6, …
T1 sequence (P63279 whole entry, the tested form may be a part): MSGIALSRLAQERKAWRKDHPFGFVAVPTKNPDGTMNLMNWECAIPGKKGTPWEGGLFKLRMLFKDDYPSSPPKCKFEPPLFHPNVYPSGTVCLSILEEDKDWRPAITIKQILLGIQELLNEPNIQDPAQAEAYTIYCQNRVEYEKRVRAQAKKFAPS

Sequence of SUMO E2 (Ubc9) (Homo sapiens) (P63279 2-158): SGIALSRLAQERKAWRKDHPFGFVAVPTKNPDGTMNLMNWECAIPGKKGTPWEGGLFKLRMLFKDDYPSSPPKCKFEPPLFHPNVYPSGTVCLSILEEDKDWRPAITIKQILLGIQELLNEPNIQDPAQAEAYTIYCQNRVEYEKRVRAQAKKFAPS

For “SUMO E1 Cys domain Cys domain (from UniProt Q9UBT2)”, the Kd [1] is given as 87 µM.

In the case of SUMO E1 UFD UFD (from UniProt Q9UBT2), the Kd [2] is given as 1.2 µM.

B1: human SUMO E1 Uba2 ubiquitin-fold domain (UFD), residues 447-547 (domain or fragment, UniProt Q9UBT2 447-547, looked up)
chain: KPEVTVRLNVHKVTVLTLQDKIVKEKFAMVAPDVQIEDGKGTILISSEEGETEANNHKKLSEFGIRNGSRLQADDFLQDYTLLINILHSEDLGKDVEFEVV
modifications: lysines methylated (borane-dimethylamine complex and formaldehyde), only in the complex that was crystallised
notes: designed from the structure of full-length human SAE1-SAE2 (PDB 1Y8Q); Cloned in pET28a; the His tag was removed with thrombin, so a few residues of the vector may remain at the N-terminus; The complex with Ubc9 was lysine-methylated after gel filtration and only then crystallised; the native gel and the gel filtration used the unmethylated protein; also called E1 UFD domain; HsUba2 UFD; source: …
B1: binds [3].
